Measured values taken from patent publication US20180155425A1 (ZONHON BIOPHARMA INSTITUTE, published 2018).

Experiments:
[1] = target: T1, human CD26 on the surfaces of tumor cells (human, UniProt P27487 1-766); test: cell-based or functional assay
[2] = target: T1, human CD26 on the surfaces of tumor …; test: cell-based or functional assay; remark: listed apart in the source
[3] = target: T1, human CD26 on the surfaces of tumor …; test: cell-based or functional assay; remark: listed apart in the source
[4] = target: T1, human CD26 on the surfaces of tumor …; test: flow cytometry on 786-0 cells, anti-His-tag-Alexa Fluor 488 detection
Procedure: (§1) Test method: 786-0 and NCI-H2452 cells in the logarithmic growth phase were trypsinized. The cells were harvested by centrifugation at 1000 rpm for 5 min, and washed twice with PBS buffer. One portion of 1.0×10⁶ cells was re-suspended in 250 μL PBS butler, and BsAb1, BsAb2, BsAb3, and BsAb4 were respectively added to give a final concentration of […] and incubated at room temperature for 1 hr. After incubation, the cells were washed twice with PBS buffer, and then 250 μL of Anti--His-tag-Alexa Fluor 488 antibody that was 1:2000 diluted was added and incubated at room temperature for 1 hr. After incubation, the cells were washed thrice with PBS, re-suspended in 300 μL PBS buffer, and detected by flow cytometer.

[5] = target: T1, human CD26 on the surfaces of tumor …; test: cell-based or functional assay; remark: listed apart in the source
CD26 protein = target: T2, CD26 protein (UniProt P27487 39-766, limits assumed); test: BLI, Fortebio Qke, AR2G amine reactive biosensor
T2 construct: Soluble CD26 protein in the biolayer interferometry assay on AR2G sensors
Source text: Test method: The affinities of the bispecific antibodies to CD26 protein were detected by using the Molecular Interaction Instrument Fortebio Qke, following the instruction of operation of immersive readable Amine Reactive 2nd Generation Biosensor (Fortebio, AR2G).

[6] = target: T1, human CD26 on the surfaces of tumor …; test: flow cytometry on PC-3 cells, anti-His-tag-Alexa Fluor 488 detection
[7] = target: T1, human CD26 on the surfaces of tumor …; test: flow cytometry on NCI-H2452 cells, anti-His-tag-Alexa Fluor 488 detection
Procedure: as §1

[8] = target: T1, human CD26 on the surfaces of tumor …; test: flow cytometry on Caki-1 cells, anti-His-tag-Alexa Fluor 488 detection
[9] = target: T1, human CD26 on the surfaces of tumor …; test: flow cytometry on COLO205 cells, anti-His-tag-Alexa Fluor 488 detection
[10] = target: T3, human CD3 on the surfaces of Jurkat cells / T cells (human, UniProt P07766 23-207; P09693 23-182; P04234 22-171); test: flow cytometry on Jurkat (CD3+) cells, antibody at 10 µg/mL, anti-His-tag-Alexa Fluor 488 detection
T3 construct: whole, on cells; CD3 is endogenous on Jurkat cells and on enriched human T cells; also called CD3 molecules on the surfaces of Jurkat cells
Procedure: Test method: Jurkat cells in the logarithmic growth phase were harvested by centrifugation at 1000 rpm for 5 min, and washed twice with PBS buffer. One portion of 1.0×10⁶ cells was re-suspended in 250 μL PBS buffer, and BsAb1, BsAb2, BsAb3, and BsAb4 were respectively added to give a final concentration of 10 μg/mL and incubated at room temperature for 1 hour. After incubation, the cells were washed twice with PBS, and then 250 μL of Anti-His-tag-Alexa Fluor 488 antibody that was 1:2000 diluted was added and incubated at room temperature for 1 hour. After incubation, the cells were washed thrice with PBS buffer, re-suspended in 300 μL PBS, and detected by flow cytometer.

Row | Binder | Lysis rate (%) of COLO205 cells by PBMC, antibody at 10 ng/mL [1] [%] | Lysis rate (%) of Caki-1 cells by PBMC, antibody at 10 ng/mL [1] [%] | Lysis rate (%) of NCI-H2452 cells by PBMC, antibody at 10 ng/mL [1] [%] | Lysis rate (%) of PC-3 cells by PBMC, antibody at 10 ng/mL [1] [%] | IC50 of T cell-mediated killing of 786-0 cells [2] [ng/mL] | Lysis rate (%) of 786-0 cells by T cells, antibody at 10^2 pg/mL [3] [%] | Lysis rate (%) of 786-0 cells by T cells, antibody at 10^3 pg/mL [3] [%] | Lysis rate (%) of 786-0 cells by T cells, antibody at 10^4 pg/mL [3] [%] | Lysis rate (%) of 786-0 cells by T cells, antibody at 10^5 pg/mL [3] [%] | Binding rate [4] [%] | Lysis (%) of 786-0 cells by PBMC, antibody at 10 ng/mL [5] [%] | Kd (CD26 protein) [nM] | Binding rate [6] [%] | Binding rate [7] [%] | Binding rate [8] [%] | Binding rate [9] [%] | binding rate to Jurkat cells [10] [%]
1 | ZHB BsAb-4 (bispecific antibody, Single-chain tandem scFv; detection on cells used an anti-His-tag antibody; also called anti-CD26×anti-CD3 bispecific antibody) DVQLVQSGAEVKKPGASVKVSCKASGYTFTRYTMHWVRQAPGQGLEWIGYINPSRGYTNYADSVKGRFTITTDKSTSTAYMELSSLRSEDTATYYCARYYDDHYCLDYWGQGTTVTVSSGEGTSTGSGGSGGSGGADDIVLTQSPATLSLSPGERATLSCRASQSVSYMNWYQQKPGKAPKRWIYDTSKVASGVPARFSGSGSGTDYSLTINSLEAEDAATYYCQQWSSNPLTFGGGTKVEIKSGGGGSDILLTQSPSSLSATPGERATITCRASQGIRNNLNWYQQKPGQAPRLLIYYSSNLQSGVPSRFSGSGSGTDFTLTISRLQPEDVAAYYCQQSIKLPFTFGSGTKVEIKGGGGSGGGGSGGGGSEVQLVESGAGVKQPGGTLRLTCTASGFSLTTYGVHWVRQAPGKGLEWVGVIWGDGRTDYDAAFMSRVTISKDTSKSTVYLQMNSLRAEDTAVYYCMRNRHDWFDYWGQGTTVTVSS | 5.4 | 0.9 | 0.5 | 53.1 | 3.1 | 24.3 | 38.8 | 64.8 | 75.4 | 98 | 25.5 | 1.97 | 62.9 | 1.4 | 1.1 | 0.2 | 56.5
2 | anti-CD26-scFv (scFv, Expressed in Pichia pastoris; also called anti-CD26 single-chain antibody; parent single-chain antibody) scFv: EVQLVESGAGVKQPGGTLRLTCTASGFSLTTYGVHWVRQAPGKGLEWVGVIWGDGRTDYDAAFMSRVTISKDTSKSTVYLQMNSLRAEDTAVYYCMRNRHDWFDYWGQGTTVTVSSGGGGSGGGGSGGGGSDILLTQSPSSLSATPGERATITCRASQGIRNNLNWYQQKPGQAPRLLIYYSSNLQSGVPSRFSGSGSGTDFTLTISRLQPEDVAAYYCQQSIKLPFTFGSGTKVEIKHHHHHH | – | – | – | – | – | 10.8 | 9.6 | 10.9 | 7.5 | – | 4.1 | 1 | – | – | – | – | –
3 | ZHB BsAb-2 (bispecific antibody, Single-chain tandem scFv; detection on cells used an anti-His-tag antibody; also called anti-CD26×anti-CD3 bispecific antibody) DILLTQSPSSLSATPGERATITCRASQGIRNNLNWYQQKPGQAPRLLIYYSSNLQSGVPSRFSGSGSGTDFTLTISRLQPEDVAAYYCQQSIKLPFTFGSGTKVEIKGGGGSGGGGSGGGGSEVQLVESGAGVKQPGGTLRLTCTASGFSLTTYGVHWVRQAPGKGLEWVGVIWGDGRTDYDAAFMSRVTISKDTSKSTVYLQMNSLRAEDTAVYYCMRNRHDWFDYWGQGTTVTVSSGGGGSDVQLVQSGAEVKKPGASVKVSCKASGYTFTRYTMHWVRQAPGQGLEWIGYINPSRGYTNYADSVKGRFTITTDKSTSTAYMELSSLRSEDTATYYCARYYDDHYCLDYWGQGTTVTVSSGEGTSTGSGGSGGSGGADDIVLTQSPATLSLSPGERATLSCRASQSVSYMNWYQQKPGKAPKRWIYDTSKVASGVPARFSGSGSGTDYSLTINSLEAEDAATYYCQQWSSNPLTFGGGTKVEIK | 17 | 26.5 | 32.3 | 39.6 | 1.39 | 21.8 | 59.2 | 69.6 | 76.3 | 99.6 | 27.4 | 3.44 | 42.8 | 71.8 | 49.9 | 14 | 92
4 | ZHB BsAb-3 (bispecific antibody, Single-chain tandem scFv; detection on cells used an anti-His-tag antibody; also called anti-CD26×anti-CD3 bispecific antibody) DVQLVQSGAEVKKPGASVKVSCKASGYTFTRYTMHWVRQAPGQGLEWIGYINPSRGYTNYADSVKGRFTITTDKSTSTAYMELSSLRSEDTATYYCARYYDDHYCLDYWGQGTTVTVSSGEGTSTGSGGSGGSGGADDIVLTQSPATLSLSPGERATLSCRASQSVSYMNWYQQKPGKAPKRWIYDTSKVASGVPARFSGSGSGTDYSLTINSLEAEDAATYYCQQWSSNPLTFGGGTKVEIKSGGGGSEVQLVESGAGVKQPGGTLRLTCTASGFSLTTYGVHWVRQAPGKGLEWVGVIWGDGRTDYDAAFMSRVTISKDTSKSTVYLQMNSLRAEDTAVYYCMRNRHDWFDYWGQGTTVTVSSGGGGSGGGGSGGGGSDILLTQSPSSLSATPGERATITCRASQGIRNNLNWYQQKPGQAPRLLIYYSSNLQSGVPSRFSGSGSGTDFTLTISRLQPEDVAAYYCQQSIKLPFTFGSGTKVEIK | 5.3 | 0.8 | 0.7 | 1.7 | – | – | – | – | – | 9.4 | 4.3 | 10 | 0.1 | 0.7 | 1.2 | 0.4 | 0.2
5 | ZHB BsAb-1 (bispecific antibody, detection on cells used an anti-His-tag antibody; also called anti-CD26×anti-CD3 bispecific antibody) EVQLVESGAGVKQPGGTLRLTCTASGFSLTTYGVHWVRQAPGKGLEWVGVIWGDGRTDYDAAFMSRVTISKDTSKSTVYLQMNSLRAEDTAVYYCMRNRHDWFDYWGQGTTVTVSSGGGGSGGGGSGGGGSDILLTQSPSSLSATPGERATITCRASQGIRNNLNWYQQKPGQAPRLLIYYSSNLQSGVPSRFSGSGSGTDFTLTISRLQPEDVAAYYCQQSIKLPFTFGSGTKVEIKSGGGGSDVQLVQSGAEVKKPGASVKVSCKASGYTFTRYTMHWVRQAPGQGLEWIGYINPSRGYTNYADSVKGRFTITTDKSTSTAYMELSSLRSEDTATYYCARYYDDHYCLDYWGQGTTVTVSSGEGTSTGSGGSGGSGGADDIVLTQSPATLSLSPGERATLSCRASQSVSYMNWYQQKPGKAPKRWIYDTSKVASGVPARFSGSGSGTDYSLTINSLEAEDAATYYCQQWSSNPLTFGGGTKVEIK | 1.7 | 0.3 | 0.2 | 45.4 | – | – | – | – | – | 41.1 | 15.9 | 9.29 | 1.2 | 1.1 | 1.1 | 0.1 | 0.1
